{
  "source": "patent US6074842",
  "target": "rat perilipin A (62-kDa phosphoprotein of unstimulated rat adipocytes; 65/67-kDa forms after stimulation) (rat)",
  "conditions": "scale: ratio to 1",
  "data": [
    {"substance": "cAMP-dependent protein kinase (enzyme)", "values": [
      {"measurement": "32P incorporation and shift in SDS-PAGE from 62-kDa to 65/67-kDa in isoproterenol-stimulated rat adipocytes", "value": 5}
    ]}
  ]
}
